Data: the nanobody polyreactivity screen of Harvey et al. (2022)

experiment: yeast display, Sf9 membrane polyspecificity reagent, FACS + sequencing; frameworks hold sequencing errors
How it was run: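 Genes from sorted yeast were amplified by colony PCR, read by MiSeq 2 × 250 sequencing and filtered on CDR length. These cells carried a synthetic nanobody library in Saccharomyces cerevisiae BJ5465 and were sorted by FACS into low and high (top ~1%) gates on anti-HA and streptavidin fluorescence. Polyreactivity is labelled according to the gate of origin.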

Sequence | polyreactivity (PSR sort gate)
QVQLVESGGGLVQAGGSLRLSCAASGIIFSWYDMGWYRQAPGKERELVAAISSGDRTNYADSVKGRFTISRDNAKNTVYLQMNSLKPEDTAVYYCAADLFPIAGEYDYWGQGTQVTVSS | high polyreactivity
QVQLVESGGGLVQAGGSLRLSCAASGIIFSYNTMGWYRPAPGKERELVAAISRTGGRTYYADSVKGRFTNSRDNAKITVYLQMNSLKPEDTAVYYCAAEQQYASMGYDYWGLGTQVTVSS | high polyreactivity
QVQLVESGGGLVQAGGSLRLSCAASGIIFSYYTMGWYRQAPGKERELVAAISARGGRTYYADSVKGRFTISRDNAKNTVYLQMNSLKPEDTAVYYCAASWSTEYYWGQGTQVTVSS | high polyreactivity
QVQLVESGGGLVQAGGSLRLSCAASGIIFSYYTMGWYRQAPGKERELVAAISRTGGRTYYADSVKGRFTISRDNAKNTVYLQMNSLKPEDTAVYYCAAEQQYASICYDYWGQGTEVTVSS | high polyreactivity
QVQLVESGGGLVQAGGSLRLSCAASGIIFTGYTMGWYRQAPGKERELVAAITWRGGCTYYADSVKGRFTISRDNAKNTVYLQMNSLKPEDTAVYYCAAEGWYSWDDDYWGQGTQVTVSS | low polyreactivity
QVQLVESGGGLVQAGGSLRLSCAASGIIFTKYFMGWYRQAPGKERELVAAINTDGGSTRYADSVKGRFTISRDNAKNTVYLQMNSLKPEDTAVYYCAAVSSRRPGYEYYYWGQGTQVTVSS | high polyreactivity
QVQLVESGGGLVQAGGSLRLSCAASGIIFTPNAMGWSRQAPGKERELVAAINYGGDTTYYADSVKGRFTISRDNAKNTVYFQMNSLKPADTAVYYCATDGTTPTPRDAFVRFDHWGQGTQVTVSS | low polyreactivity
QVQLVESGGGLVQAGGSLRLSCAASGIIFTRNAKGWSRQAPGKERELVAAISRSGGRTSYADSVKGRFTISRDNAKNTVYLHMNSLKPEDTEVYYCYARTTSGWGQGTQVTVSS | high polyreactivity
QVQLVESGGGLVQAGGSLRLSCAASGIIFTRNAMGWYRQATGKERELVAAITYGGSTYYADSVKGRFTISRDNAKNTVYLQMNSLKPEDTAVYYCAVDAYRYRVHSYGKKYGYNYWGQGTQVTVSS | high polyreactivity
QVQLVESGGGLVQAGGSLRLSCAASGIIFTSNTMGWYRQAPGKEREFVASINWNGSSTNADSVKGRFTISRDNAKNTVYLQMNSLKPEDTAVYYCNADYNRNSVQFSLYDYWGQGTQVTVSS | low polyreactivity
QVQLVESGGGLVQAGGSLRLSCAASGIIFTVYAMGWDRQAPGKERELVAAISFSTGRTYYADSVKGRFTISRDNAKNTVYLQMNSLKPEDTAVYYCAASAGHTFSKPFDRGRYGYWGQGTQVTVSS | high polyreactivity
QVQLVESGGGLVQAGGSLRLSCAASGIIFTVYAMGWYRQAPGKERELVAAITWSGGSTYYADSVKGRFTISRDNAKNTVYLQMNSLKPEDTAVYYCNKVGRVWDVETDGDYDYWGQGTQVTVSS | low polyreactivity
QVQLVESGGGLVQAGGSLRLSCAASGIIFTVYAMGWYRQAPGKERELVASITSNGGSTYYADSVKGRFTISRDNAKNTVYLQMNSLKPEDTAVYYCAADSYYDPVDYNYWGQGTQVTVSS | low polyreactivity
QVQLVESGGGLVQAGGSLRLSCAASGIIFTYYAMGWDRQAPGKERELVARISSSGGRTYYADSVKGRFTISRDNAKNTVYLQMNSLKPEDTAVYYCAAAIVSYGRNDYWGQGTQVTVSS | high polyreactivity
QVQLVESGGGLVQAGGSLRLSCAASGIIFTYYAMGWYRQAPGKERELVAAISDSGGGTYYADSVKGRFTISRDNAKNTVYLQMNSLKPEDTAVYYCAASGAWWDDYWGQGTQVTVSS | high polyreactivity
QVQLVESGGGLVQAGGSLRLSCAASGIIFTYYAMGWYRQAPGKERELVAAISVSGSSTYYADSVKARFTISRDYAKNTVYLQMNRLKPEDTAVYYCAVKQGFYSRALKLYYWGQGTQVTVSS | high polyreactivity
QVQLVESGGGLVQAGGSLRLSCAASGIIFTYYAMGWYRQAPGKERELVAAISYRGGSTYYADSVKGRFTISRDNAKNTVYLQMNSLKPEDTAVYYCNARYFRHYDYWGQGTQVTVSS | high polyreactivity
QVQLVESGGGLVQAGGSLRLSCAASGIIFTYYAMGWYRQAPGKERELVASISSSGTSTYYADSVKGRFTISRDNAKNTVYLQMNSLKPEDTAVYYCAADWTGSNGVDYWGQGTQVTVSS | low polyreactivity
QVQLVESGGGLVQAGGSLRLSCAASGIIFVDYVMGWYRQAPGKERELVAAITYTGGSTYYADSVKGRFTISRDNAKNTVYLQMNSLKPEDTAVYYCAARRNDRFFPAYYYWGQGTQVTVSS | high polyreactivity
QVQLVESGGGLVQAGGSLRLSCAASGIIFVFNAMGWYRQAPGKERELVAVISTSGDSTYYADSVKGRFTISRDNAKNTVYLQMNSLKPEDTAVYYCAADQRVTYRRGRAYDKYYYWGQGTQVTVSS | low polyreactivity
QVQLVESGGGLVQAGGSLRLSCAASGIIFVGNAMGWYRQAPGKERELVASINSGGSTYYADSVKGRFTISRDNAKNTVYLPMNSLKPEDTAVYYCAVEEARYYYDDYDYWGQGTQVTVSS | low polyreactivity
QVQLVESGGGLVQAGGSLRLSCAASGIIFVINAMGWYRQAPGKERELVATITGSGTTNYADSVKGRFTISRDNAKNTVYLHMNSLKPEDTAVYYCARDDTEYARTGAYDYWGQGTQVTVSS | low polyreactivity

Sequence | polyreactivity (PSR sort gate)
QVQLVESGGGLVQAGGSLRLSCAASGIIFVLYTMGWYIQAPGKERELVATINWGGGNTYYADSVKGRFTISRDNAKNTVYFQMNSLKPEDTAVYYCAAAYTWYGYSQAYYYWGQGTQVTVSS | low polyreactivity
QVQLVESGGGLVQAGGSLRLSCAASGIIFVTNDMGWYRQAPGKERELVATITWSGGSTYYADSVKGRFTISRDNAKNTVYLQMNSLKPEDSAVYYCAAESRYTWIHSRDYWGQGTQVTVSS | low polyreactivity
QVQLVESGGGLVQAGGSLRLSCAASGIIFVVYDMGWYRQAPGKERELVAAINWSGGSTYYADSVKGRFTISRDNAKNTVYLQMNSLKPEDTAVYYCAAESFSDGSPYNYWGQGTQVTVSS | low polyreactivity
QVQLVESGGGLVQAGGSLRLSCAASGIIFVYNAMGWYRPAPGKARELVAAINWRGDGTYYADSVKGRFTISRDNAKNTVYLQMNCLKPEDTAVYYCNAVRFRPNSHYRPVGYDYWGQGTQVTVSS | low polyreactivity
QVQLVESGGGLVQAGGSLRLSCAASGIIFVYYAMGWYRQAPGKERELVAAISTGGTRTYYADSVKGRFTISRDNAKNTVYLQMNSLKPEDTAVYYCNARGRYRKSERRAFDYWGQGTQVTVSS | high polyreactivity
QVQLVESGGGLVQAGGSLRLSCAASGIIFVYYAMGWYRQAPGKERELVAAISTRGGSTYYADSVKGRFTISRDNAKNTVYLQMNSLKPEDTAVYYCAATYVYRYVPRIPSEAYDYWGQGTQVTVSS | high polyreactivity
QVQLVESGGGLVQAGGSLRLSCAASGIIFWYYAMGWYRQAPGKDRELVARITTAGITNYADSVKGRFTISRDNAKNTVYLQMNSLKPEDTAVYYCAADTYWHYRGPGYDYWGQGTQVTVAS | low polyreactivity
QVQLVESGGGLVQAGGSLRLSCAASGIIFYDYAMGGYREAPGKERELVATITRGGGTKYADSVKGRFTISRDNAKNTVYLQMNSLKPEDTAVYYCAADSHGVYEGDYCGQGTQVTVSS | low polyreactivity
QVQLVESGGGLVQAGGSLRLSCAASGIIFYDYAMGWYRPAPGKERELVAAINYSGGSTYYADSVKGRFTISRDNAKNTVYLQMNSLKPEDTAVYYCAADNAVWEYDYWGQGSQVTVSS | low polyreactivity
QVQLVESGGGLVQAGGSLRLSCAASGIIFYDYAMGWYRQAPGKERELVAAISGSGGSTYYADSVKGRFTISRDNAKNTVYLQMNSLKPEDTAVYYCAARFTRQMYYWGQGTQVTVSS | high polyreactivity
QVQLVESGGGLVQAGGSLRLSCAASGIIFYDYAMGWYRQAPGKERELVAAISTDAGSTYYADSVKGRFTISRDNAKNTVYLQMNSLKPEDTAVYYCNADEHSYSVSWDYEYDYWGQGTQVTVSS | high polyreactivity
QVQLVESGGGLVQAGGSLRLSCAASGIIFYDYAMGWYRQAPGKERELVAAITSGGSTNYADSVKGRFTISRDNAKNTVYLQMNSLKPEDTAVYYCAATYWSWISLRFYWGQGTQVTVSS | low polyreactivity
QVQLVESGGGLVQAGGSLRLSCAASGIIFYDYAMGWYRQAPGKERELVAAITSSGGSTYYADSVKGRFTISRDNAKNTVYLQMNRLKPEDTAVYYCAAATRGSGRRYDYWGQGTQVTVSS | high polyreactivity
QVQLVESGGGLVQAGGSLRLSCAASGIIFYFYARGWYRQAPGKETELVAANSRGGSTKYADSVKGRFTISRDNAKNTVYLLMYSLKPEDTAFYYCNARVRGVRQGIMDYWGQGTQVSVSS | high polyreactivity
QVQLVESGGGLVQAGGSLRLSCAASGIIFYGNAMGWYRPAPGKERELVAAISWTTDSTYADSVKGRFTISRDNAKNTVYLQMNSLKPEDTAVYYCNARNGSEFLANDLFTHEYDYWGQGTQVTVSS | low polyreactivity
QVQLVESGGGLVQAGGSLRLSCAASGIIFYGNAMGWYRQAPGKERELVAAISWSGSSTYYADSVKGRFTISRDNAKNTVYLQMNSLKPEDPAVYYCNKATSSVRYLKYYYWGQGTQVTVSS | high polyreactivity
QVQLVESGGGLVQAGGSLRLSCAASGIIFYGYAMGWYRQAPGKERELVAAISRSGGSTYYADSVKGRFTISRDNAKNTVYLQMNSLKPEDTAVYYCAASGVTYDYWGQGTQVTVSS | high polyreactivity
QVQLVESGGGLVQAGGSLRLSCAASGIIFYGYDMGWYRQAPGKERELVAAITWSGGSTYYADSVKGRFTISRDNAKNTVYLQMNSLKPEDTAVYYCNADLDSGYGSYDYWGQGTQVTVSS | low polyreactivity
QVQLVESGGGLVQAGGSLRLSCAASGIIFYHYALGWYRPAPGKERELVAAISRRGGTTYYADSVKGRFTISRDNAKNTVYLQMNSLKPEDTAVYYCAADYGSYGLYRGYYYWGQGTQVTVSS | high polyreactivity
QVQLVESGGGLVQAGGSLRLSCAASGIIFYIYAMGWYRQAPGKERELVAGISWRGGSTSYADSVKGRFTISRDNAKNTVYLQMNSLKPEDTAVYYCAAEVYSWDGYDYWGQGTQVTVSS | low polyreactivity
QVQLVESGGGLVQAGGSLRLSCAASGIIFYIYAMGWYRQAPGKERELVATISNDGGSTYYADSVKGRFTISRDNAKNTVYLQMNSLKPEDTAFFYCNADFADDKNYLFESELEYDYWGQGTQVTVSS | low polyreactivity
